Tests used:
Experiment in all cases: cell-based or functional assay
GLP-1 receptor (GLP-1R) = biological target: GLP-1 receptor (GLP-1R)
GCG receptor (GCGR) = biological target: GCG receptor (GCGR)
GIP receptor (GIPR) = biological target: T1, GIP receptor (GIPR)
T1 sequence (P48546 whole entry, species assumed, looked up): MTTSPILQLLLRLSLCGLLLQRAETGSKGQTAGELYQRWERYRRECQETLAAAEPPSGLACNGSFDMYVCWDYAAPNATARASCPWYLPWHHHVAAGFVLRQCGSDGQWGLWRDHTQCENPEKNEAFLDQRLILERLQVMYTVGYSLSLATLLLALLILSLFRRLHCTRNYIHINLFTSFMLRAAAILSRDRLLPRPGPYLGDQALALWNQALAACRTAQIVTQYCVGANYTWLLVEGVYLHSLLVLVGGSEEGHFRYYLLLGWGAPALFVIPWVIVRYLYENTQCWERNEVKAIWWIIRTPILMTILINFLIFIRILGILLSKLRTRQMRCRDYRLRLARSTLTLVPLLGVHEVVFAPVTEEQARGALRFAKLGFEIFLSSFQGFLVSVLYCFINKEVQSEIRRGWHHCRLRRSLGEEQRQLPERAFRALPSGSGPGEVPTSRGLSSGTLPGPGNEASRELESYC

| Substance | GLP-1 EC50 (nM), cAMP assay on HEK293 cells with GLP-1R (GLP-1 receptor (GLP-1R)) [nM] | GCG EC50 (nM), cAMP assay on HEK293 cells with GCGR (GCG receptor (GCGR)) [nM] | GIP-1 EC50 (nM), cAMP assay on CHO cells with GIPR (GIP receptor (GIPR)) [nM] |
| --- | --- | --- | --- |
| Human GLP-1 (7-37) (from UniProt P01275 21-180) (ligand) | 0.001 | – | – |
| Human Glucagon (from UniProt P01275 53-81) (ligand) | – | 0.001 | – |
| LY3437943 (peptide) | 0.014 | 0.031 | 0.001 |

From patent US20260234211A1, “POLYPEPTIDE HAVING MODIFIED STRUCTURE AND USE THEREOF” (Guangdong Raynovent Biotech Co., Ltd., priority 2023, published 2026)
